Source: the DeepSol protein solubility set

Assay: soluble on expression in E. coli; label from the status in PepcDB or PDB records

Sequence | soluble on expression in E. coli
MLLETTPIKANHLRSILDYIEQEQLTAEDRNHCMKLSKKKSIEKKTIHPTVNLNGSACFLQSPSDAIFCRHLSLQYALDSLRNGKGKVNLIKHYSSVESIQQHVPLVRDAEFRALLRHPPAGSRVIASKDFGFALDIFFCRMMANNVSHMSAILYIDNHTLSVRLRIKQSVYGQLNYVVSVYDPNDTNVAVRDTHRTARGFLSLDKFISSGPDAQTWADRYVRNCAIAILPLLPVGVPGAIFAGIASRMPFAPIHPSAMLLIMATGQSQQLITLFKQLPILPEKEIIEIITAQNSVGTPALEHHHHHH | soluble
MLLSIIMPAHNAAAYLERTLALLAQQIAGLEQVEVVAIDDASTDETAKILVEFARTHSWLKAISVDFANVGLARQAGIGLAGGQYVTFLDSDDAFLSGGLAWMVNVLRQRAPDLLMTPLQETGQPLDGTEVAGLFQDVVPLSTQQACDLFCEHQRLQGHFAGKCVTRQILLQHDLAAMECYEDMMTTPHWIVEAKSIVWGEVPVYAYYKRPGSLSDRGQTWRYGKEYIRALQSIEAAFAGRIAVWQTAHLWIGFAKDLLKTSTGRQFLDTQPAVAEKIQSISVWKYLVATQVSCKWKIRFLRVRLRLLEHHHHHH | soluble
MLLSRICRFRMLTRFTRLRPILQLRYLAQNSHIEEEYFEELEPTGIISSHETSQEPPKRTGFRSQNLSEDADFVENVVGALTDQRAKDVFVVKSEETEMTPYTHKIICSAFNSRQASAISENLRSLLKIDGVSNGSMSHARRSTKRSNGWYVSEVERVQVHVMSEECREKYDLEAIWAGDDRILDEIDEEKQKILLPPRR | not soluble
MLNEFDQYLHERYLSGKARKDRWYWNNSIQRGRSTAVRENWQWKPAVAYCRYADDFVLIVKGTKAQAEAIREECRGVLEGSLKLRLNMDKTKITHVNDGFIFLGHRIIRKRSRYGEMRVVSTIPQEKARNFAASLTALLSGNYSESKVDMAEQLNRKLKGWAMFYQFVDFKAKVFSYIDRVVFWKLAHWLARKYRTGIASLMRWWCKSPKPGQSKTWVLFGKTNHGKLSGEILYRLVGQGKKLFRWRLPEGNPYLRTETRNTYTSRFTEVAMAFASILEHHHHHH | soluble
MLNNAMSVVILAAGKGTRMYSDLPKVLHTLAGKAMVQHVIDAANELGAAHVHLVYGHGGDLLKQALKDDNLNWVLQAEQLGTGHAMQQAAPFFADDEDILMLYGDVPLISVETLQRLRDAKPQGGIGLLTVKLDDPTGYGRITRENGKVTGIVEHKDATDEQRQIQEINTGILIANGADMKRWLAKLTNNNAQGEYYITDIIALAYQEGREIVAVHPQRLSEVEGVNNRLQLSRLERVYQSEQAEKLLLAGVMLRDPARFDLRGTLTHGRDVEIDTNVIIEGNVTLGHRVKIGTGCVIKNSVIGDDCEISPYTVVEDANLAAACTIGPFARLRPGAELLEGAHVGNFVEMKKARLGKGSKAGHLTYLGDAEIGDNVNIGAGTITCNYDGANKFKTIIGDDVFVGSDTQLVAPVTVGKGATIAAGTTVTRNVGENALAISRVPQTQKEGWRRPVKKK | soluble
MLNTILVALDGSEIAERVIQTLGYLVLSPNTNVILCHVFPAPESEIELPADRPQPDLPNFSYFNIDKQMQSYQERLSVKSELELVMGDPADEIIRLANIYKADLVVIGSRGLTGMNRIVQGSVSTQVMEAANCSVLVVKPARN | not soluble
MLPKTWRENFFVLVREVKNLRATAKKISRHFFRKYEPQPGVFWFVFHLSRSHPFPFLKPLLSGDQARGAATPTPCMRTHLFHRIDPIKSEMGGLSTGYITFVWRGVHPRIGPIAAESLTDGKEEDEALSCGYII | not soluble
MLPLNATITQIIEESPLIRTFFFDHKFEDMEPGQFVMVWVRGVDEVPMGLSRNNSITVQKVGEATSKLFELKEGDSFGLRGPFGKGFTLPAKGEKVLIIAGGVGAAPLSPYAEAAFAAGAEVNTVLGARSEEHLLFEGRFEALGTVYVSTDDGSKGFKGFVTDVLKNLDVTSYDRIAVCGPEIMMASVFRFLEEREVLEKSEFSLHRYFKCGIGVCGACCIDRSGLRVCKDGPVFSGTQLIGSELGKYSRDASGRRVKI | not soluble
MLPLSSVELTDIKTDDLDIKWDNVQQFKLGDGSYADVFHVFYKGHDAVLKRSIKEYTDKERENIRREARVVAALNNCENVVRIYGICETLPFRGMIMEYCAGPNLSELVFQLDECKVKFETLRIFKWCHDLTRTLCELNVTYYHGDVKAKNVLVKERPCCCVEGIYENVKIRNTTYSLCTICNGVHLEHLSLKICDFGMSYEHKDKRLYNGGTREFSAPETIRGIYTEKSEVYSFGHLMLVLVIGGPTEDDCAVGQRAFLKMYNNKKYDMSGCKSNSICETIEWCLNNTQESRPTFKQLLSKLNSRHTHYLSLRGTDTRRLEANNEREEFLDHYRIPRKISVHRRTTTTSTCISLSETSGSNQDISVTSAAYLGGPIVNQMFIADTPLASPSASRKFRNDGFEKTNYVENQLYTGDETRKPFLTGGISHPGYSVMRKNSVWKFFVQARNSIRSKITKLVRKRK | not soluble
MLPQHDFIFFFFAFSILSPSPPPLSSFSSPPPPSFSFFIASTSFFSSQPPSHPRVKKCIDTHTTPSTLTFFSAHHPLASPKIHYEVVLYYSFFFKFRLRLLLVSVAHQLLE | not soluble
MLQITKSLSIALTEIEMTALRSQGAGGQNVNKVASAIHLRFDIGASSLPDVYKERLLNLNDQRITKDGIVVIKAQSHRTQEQNREEALKRLQGLISSVITLPKPRRPTKPTRSSQRKRLDAKTKRSAVKALRKSIDELEHHHHHH | not soluble
MLQKLIQILRRNEYVKNVYKNTVSNFIETSIPEITPFNARTSSIKGKRLNLLVPSINQEHMFGGISTALKLFEQFDNKKFKKRIILTDATPNPKDLQSFKSFKYVMPEEDKDFALQIVPFNDRYNRTIPVAKHDIFIATAWWTAYAAQRIVSWQSDTYGIPPNKILYIIQDFEPGFYQWSSQYVLAESTYKYRGPQIAVFNSELLKQYFNNKGYNFTDEYFFQPKINTTLKNYINDKRQKEKIILVYGRPSVKRNAFTLIVEALKIFVQKYDRSNEWKIISVGEKHKDIALGKGIHLNSLGKLTLEDYADLLKRSSIGISLMISPHPSYPPLEMAHFGLRVITNKYENKDLSNWHSNIVSLEQLNPENIAETLVELCMSFNNRDVDKKESSNMMFYINEFNEFSFIKEIEEKL | soluble
MLQKTKGIVLHTLKYNDTSIIVDMYTELSGRTSFLVPVPRSRKAAVKSVLFQPLSFIEFEADFRPNATLYRVKEAKSFYPFTSIPYDPYKSSMALFLAEFLYRAVREEAENRPLFAYLQHSVIWLDECREGFANFHLVFLMRLSRFLGLYPNLEDYHTGDYFDLLNACFTSTRPQLHSSYINPEEAGRLRQLMRMNYETMHLFGMSRAERTRCLTIMNDYYRLHLPDFPALKSLDVLKELFD | not soluble
MLQVRMLLRIPTVLRSQELIDKAFSRASRIEEPYFPDKIERIRKEVQDRISTIESISRSFLDRLVKKFPSINNLHPFYSSLIDLMFDIDQYKISLSKIDRTSQMIEQISGEHIRRLKAAKTVEDANRIMRSYYGRFASLVHEIDQDLLFLGKCRDYMKKIPDIDVNLRTYIIAGMPNVGKSSLLAALTTKKPEIAPYPFTTKSVIIGIAEHGYERIQFIDTPGILDRDFDEMNQIEKNAVLALRHIKGTVIFLFDYSDQSLYDPEMQEHLYQQIREHINPDIIRVQTKMDISREKREKIAISVNSEGGLDPLKAIIFGRADDDVRRLEHHHHHH | not soluble
MLRALRGAADLLSTALYKNEMMMSRRYLSTPAPEPAKPSSEETTESTEPATSVEDAGEPMKEKRITQPYSSEALTKLKLDQYPLYVEREWWKTGKRMTFWASWRQLRDVKRREQIQEVGADRMRLKAIKFNTILPQAIRDEAAEKMQKARKYDHPRLILNMCQFTGRQRGKIKPYRLSRHLFRRFADRSALSGVQRAMW | not soluble
MLRIEDLQLAAALAQAPSLSAAARALNVTPPALSMRLRKLEAGLGLALAVRSARRLSLTPEGERLAREAAALLAQLQALPESLRRDDSRLTGTLRVAAPFGYGRRHIAPVLARLAQRHPELRVQLDLRETPWPDHQDADAVVHIGAVRDSSWVTRRLADNERWLCASPQYLQDHGMPREPRDLLHHRCICIRENDEDASLWRFRRADAGAAGRKAAETVRIAPAYVSNDGNVARAWAEQGLGLVVRSQWDAEGAVARGALVRVMPQWQLDSAPVMLLVPGRKGRSARVKALLECFDEQAGHA | not soluble
MLRQIVLMCAIHTACSFSIRDIINGKRGADAAIPAPCPTWHPFACPSGECVPIKYLCDGSPDCSDEYDENKSMCTAATRPPVEETQAFLKALMSAHGKDFLVKVFGPKAKAELSGMGGVDKVAVALSQTPTADLFASEMKLDDGETQHMLEVMEGILNGSTDELTSNEAADFRFFVQKLQETGFF | not soluble
MLRSLVQNPKVRARVLERVDEFRLNNLSNEEVWFRELTLCLLTANSSFISAYQALNCLGQKIYYANEEEIRNILKSCKYRFYNLKAKYIIMAREKVYGRLKEEIKPLADEDQQLARERLLNIKGIGMQEASHFLRNVGYFDLAIIDRHIIDFMRRIGAIGETNVKQLSKSLYISFENILKSIASNLNMSVGILDLFIWYKETNTIVK | soluble
MLRSQAKNVDLTSQADSRHQQKRKQAEQLDALKNPSEPAAKKQHSKGLTELRAHISGFKIDSAKRDPLGKSRTSRRDVENLPPQKSRYVDPCPHYDYDLEEAGNPDSISDYAQGIFDYYRHREVHFRVRKYLHKHPEVDVKTRAILIDWMVEIQETFELNHETLYNAVKLTDMYLCKTKNVDKNTIQKLACVAIFIAAKYDERSPPLVDDLIYLSGDRFSRDELLAMERELFATVGYDLGSPLSYRYLRRFGRVCRVDMKTLTMGRFILETSLMVYEYAMVSQSRLAAAAFVLAMRMLDKNNEYEWNPVLEKYSGFTGEEVMPLVEHMNHILHFSKDKWAQLTSVRQKYSHEVFFHVASIPMLPDTLKVVDSHTYAPVPMLSYP | not soluble
MLRVGPLTIGTLDDWAPSTGSTVSWRPSAVAHTKASQAPISDVPVSYMQAQHIRGYCEQKAKGLDYSRLMVVSCQQPGQCDIRAANYVINAHLRRHDTYRSWFQYNGNGQIIRRTIQDPADIEFVPVHHGELTLPQIREIVQNTPDPLQWGCFRFGIVQGCDHFTFFASVDHVHVDAMIVGVTLMEFHLMYAALVGGHAPLELPPAGSYDDFCRRQHTFSSTLTVESPQVRAWTKFAEGTNGSFPDFPLPLGDPSKPSDADIVTVMMLDEEQTAQFESVCTAAGARFIGGVLACCGLAEHELTGTTTYYGLTPRDTRRTPADAMTQGWFTGLIPITVPIAGSAFGDAARAAQTSFDSGVKLAEVPYDRVVELSSTLTMPRPNFPVVNFLDAGAAPLSVLLTAELTGTNIGVYSDGRYSYQLSIYVIRVEQGTAVAVMFPDNPIARESVARYLATLKSVFQRVAESGQQQNVA | not soluble
MLRVLVGAVLPAMLLAAPPPINKLALFPDKSAWCEAKNITQIVGHSGCEAKSIQNRACLGQCFSYSVPNTFPQSTESLVHCDSCMPAQSMWEIVTLECPGHEEVPRVDKLVEKILHCSCQACGKEPSHEGLSVYVQGEDGPGSQPGTHPHPHPHPHPGGQTPEPEDPPGAPHTEEEGAED | soluble
MLSAFFKTAHCALRNMPIQTDLVGKWNFVSSENFDEYLKEVGVGWAIRTIATKTKPALEFAVNGDEWTMNSNSTFKNYTLKWKLGTASDEKTADGRDVSSVFSIENDHLVQIETGKGGGKDSRIERYIENGKLVIVCTCNGVKCTRVYEKAA | not soluble
MLSALRTAGAVGTRRLASTQAIASNSEAPKGIATTGTPFLNPSSKAEYALARLDDVLNLAQRGSIWPLTFGLACCAVEMMHFAAPRYDMDRYGVVFRASPRQADLIFVAGTVTNKMAPALRRIYDQMPEAKWVISMGSCANGGGYYHYAYSVLRGCDRVIPVDIYVPGCPPTAEALLYGVLQLQKKIKRKREAQLWYRR | not soluble
